These results are taken from IntAct's records for PubMed 31262713.

First the molecules themselves.
B1: Protein Niban 2 (Homo sapiens), Q96TA1 (parent)
chain: MGDVLSTHLDDARRQHIAEKTGKILTEFLQFYEDQYGVALFNSMRHEIEGTGLPQAQLLWRKVPLDERIVFSGNLFQHQEDSKKWRNRFSLVPHNYGLVLYENKAAYERQVPPRAVINSAGYKILTSVDQYLELIGNSLPGTTAKSGSAPILKCPTQFPLILWHPYARHYYFCMMTEAEQDKWQAVLQDCIRHCNNGIPEDSKVEGPAFTDAIRMYRQSKELYGTWEMLCGNEVQILSNLVMEELGPELKAELGPRLKGKPQERQRQWIQISDAVYHMVYEQAKARFEEVLSKVQQVQPAMQAVIRTDMDQIITSKEHLASKIRAFILPKAEVCVRNHVQPYIPSILEALMVPTSQGFTEVRDVFFKEVTDMNLNVINEGGIDKLGEYMEKLSRLAYHPLKMQSCYEKMESLRLDGLQQRFDVSSTSVFKQRAQIHMREQMDNAVYTFETLLHQELGKGPTKEELCKSIQRVLERVLKKYDYDSSSVRKRFFREALLQISIPFLLKKLAPTCKSELPRFQELIFEDFARFILVENTYEEVVLQTVMKDILQAVKEAAVQRKHNLYRDSMVMHNSDPNLHLLAEGAPIDWGEEYSNSGGGGSPSPSTPESATLSEKRRRAKQVVSVVQDEEVGLPFEASPESPPPASPDGVTEIRGLLAQGLRPESPPPAGPLLNGAPAGESPQPKAAPEASSPPASPLQHLLPGKAVDLGPPKPSDQETGEQVSSPSSHPALHTTTEDSAGVQTEF

The variants in test [1] derive from B1. Particulars: with keap1_human KEAP1, Q14145.
Sequence of keap1_human KEAP1, Q14145 (Q14145 whole entry): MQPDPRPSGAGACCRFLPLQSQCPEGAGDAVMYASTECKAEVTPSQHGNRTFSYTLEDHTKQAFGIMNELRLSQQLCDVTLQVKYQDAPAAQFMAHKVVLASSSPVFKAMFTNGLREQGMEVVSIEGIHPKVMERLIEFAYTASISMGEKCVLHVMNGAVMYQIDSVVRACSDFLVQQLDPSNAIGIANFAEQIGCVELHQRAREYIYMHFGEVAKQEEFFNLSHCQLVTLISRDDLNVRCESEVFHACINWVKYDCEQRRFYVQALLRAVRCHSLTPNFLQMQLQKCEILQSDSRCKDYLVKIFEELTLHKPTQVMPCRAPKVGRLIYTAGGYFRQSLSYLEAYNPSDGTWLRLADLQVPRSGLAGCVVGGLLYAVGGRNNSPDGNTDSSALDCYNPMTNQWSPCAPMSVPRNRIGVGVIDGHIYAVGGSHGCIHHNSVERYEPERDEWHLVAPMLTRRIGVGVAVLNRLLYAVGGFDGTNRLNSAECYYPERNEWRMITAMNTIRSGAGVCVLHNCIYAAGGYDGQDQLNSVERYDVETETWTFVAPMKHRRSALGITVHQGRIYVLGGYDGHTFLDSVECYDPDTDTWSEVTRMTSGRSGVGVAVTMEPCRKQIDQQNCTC
In test [2] the parent is B1. Particulars: with keap1_human KEAP1, Q14145. The source holds these as a separate data set.

Regarding E718A;T719A, the “effect of a mutation on the interaction” value in test [1] was “disrupting interaction strength”. G710A;E718A;T719A: the “effect of a mutation on the interaction” value in test [1] and in test [2] was “disrupting interaction strength” each time. On to G710A, for which the “effect of a mutation on the interaction” value in test [1] was “with no effect”; in test [2], “disrupting interaction strength”.
